# Assay results as given in patent US12565517B2, “Cyclic peptide having CTLA-4 inhibitory activity and use thereof” (GeneFrontier Corporation, priority 2019, dated 2026).
# Where a SMILES comes first, the peptide text is derived from it. Bridges are numbered along the chain shown (N, C = ends). The star is where a group is joined. Biotin = O=C1N[C@H]2[C@H](CS[C@H]2CCCCC(=O)*)N1; PEG4 = NCCOCCOCCOCCOCCC(=O)O
# Molecular target: T1, CTLA-4 (Homo sapiens, UniProt P16410)
# T1 sequence (P16410 36-223): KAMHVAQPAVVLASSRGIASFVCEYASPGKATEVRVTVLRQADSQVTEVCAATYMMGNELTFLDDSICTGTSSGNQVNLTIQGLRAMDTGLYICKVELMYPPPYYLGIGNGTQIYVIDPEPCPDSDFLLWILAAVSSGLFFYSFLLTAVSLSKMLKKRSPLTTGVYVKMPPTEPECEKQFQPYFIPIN
# Test: ELISA binding of clones after Affinity Maturation with random library (Tables 10, 11)
# Details: CTLA-4 binding ELISA of clones after Affinity Maturation from random (NNS) library; signal/noise ratio; clones of 4th or 5th round
# Experimental: After each round of Affinity Maturation, the cyclic peptide genes were recovered and subcloned into pET-Mal vector (FIG. 2) in the same manner as described above to perform base sequence analysis. For the 94 single colonies analyzed for sequence, E. coli transformants were inoculated into 100 μL of 2×YT medium containing ampicillin (final concentration 50 μg/mL), incubated at 37° C. for 3-5 hours (OD600=0.5-0.8), then added with IPTG (final concentration 0.5 mM) and incubated at 25° C. overnight. 10 μL of E. coli cultured medium was added with 90 μL of PBS and 40 μL of lysis reagent (20 μL BugBuster Protein Extraction Reagent (Novagen), 20 μL Lysozyme solution 2.5 mg/mL) to lyse E. coli cells for 1 hour at room temperature. The cell lysate was added with 40 μL of 12.5% skim milk solution (TBST) and blocked for 1 hour at room temperature. In parallel, antigen protein was immobilized overnight at 4° C. in 384-well plates at 100 ng/20 μL per well, and each well was washed twice with 100 μL/well of TBST, added with 100 μL/well of 5% skim milk solution (TBST) for blocking for 1 hour at room temperature, and washed twice with 100 μL/well of TBST to obtain antigen-immobilized plates. 20 μL/well of blocking-treated E. coli extract was added to the antigen-immobilized plates and gently stirred at room temperature using a plate mixer. After 1 hour, the plates were washed 5 times with 100 μL/well of TBST, 20 μL/well of anti-FLAG M2-HRP conjugate (1:2000 dilution, Sigma) was added and gently stirred on a plate mixer for 1 hour at room temperature. The plates were washed 5 times with 100 μL/well of TBST, and binding of cyclic peptides to the antigen was detected by 20 μL/well of chromogenic substrate (0.4 mg/mL 3,3′,5,5′-Tetramethyl-benzidine, 0.01% hydrogen peroxide). After 15 minutes of reaction at room temperature, the reaction was stopped with 20 μL/well of 2N HCl, and absorbance at 450 nm was measured using a plate reader (infinite F200: TECAN) (Table 5).
# Oligo DNAs of a library were synthesized (see below), in which amino acid residues (positions 1, 4, 8, 10, +1 and +2) (corresponding to X1, […], X8, X10, X+1 and X+2) other than those essential or advantageous for CTLA-4 binding (2H, 3P, 5L, 6P, 7I, 9S, 11H, 12F) identified by alanine scanning were randomized (NNS).
# Affinity Maturation was performed in the same manner as described above. The amount of biotinylated CTLA-4 immobilized on the magnetic beads was 10 pmol in the 1st round, 2 pmol in the 2nd round, and 1 pmol in the 3nd-5th rounds, respectively. The washing period was 2 hours for the 1st round, 19 hours for the 2nd round, 67 hours for the 3nd round, 140 hours for the 4th round, and 340 hours for the 5th round. Washing frequency was 1 time (2 hours) in the 1st round, 2 times (every 10 hours) in the 2nd round, 6 times (every 10 hours) in the 3rd round, 14 times (every 10 hours) in the 4th round, and 36 times (every 10 hours) in the 5th round.
row,Molecule,ELISA S/N(SA)
1,C4m#19-5th4w-NN6-57 (GGCMHPYLPIVSVHFCPC; C4m#19-5th4w-NN6-57),27.7
2,C4m#19-5th4w-NN6-59 (GGCLHPHLPIWSLHFCPL; C4m#19-5th4w-NN6-59),27.6
3,C4m#19-5th4w-NN6-61 (GGCPHPMLPIFSVHFCPY; C4m#19-5th4w-NN6-61),5.9
4,C4m#19-5th4w-NN6-63 (GGCWHPYLPILSRHFCQA; C4m#19-5th4w-NN6-63),16.5
5,C4m#19-5th4w-NN6-64 (GGCWHPVLPIRSVHFCCR; C4m#19-5th4w-NN6-64),13.7
6,C4m#19-5th4w-NN6-67 (GGCLHPFLPIRSVHFCPR; C4m#19-5th4w-NN6-67),45.4
7,C4m#19-5th4w-NN6-69-1 (GGCSHPFLPILSVHFCPF; C4m#19-5th4w-NN6-69-1),24.9
8,C4m#19-5th4w-NN6-70 (GGCMHPFLPIRSMHFCPL; C4m#19-5th4w-NN6-70),35.5
9,C4m#19-5th4w-NN6-71 (GGCPHPWLPIASVHFCPF; C4m#19-5th4w-NN6-71),17.4
10,C4m#19-5th4w-NN6-74 (GGCFHPFLPIYSWHFCAR; C4m#19-5th4w-NN6-74),15.1
11,C4m#19-5th4w-NN6-75 (GGCWHPFLPIKSVHFCCA; C4m#19-5th4w-NN6-75),5.6
12,C4m#19-5th4w-NN6-77 (GGCRHPFLPIVSTHFCSR; C4m#19-5th4w-NN6-77),30.5
13,C4m#19-5th4w-NN6-79 (GGCWHPVLPIRSCHFCAV; C4m#19-5th4w-NN6-79),24.9
14,C4m#19-5th4w-NN6-81 (GGCFHPYLPIRSWHFCSR; C4m#19-5th4w-NN6-81),32.3
15,C4m#19-5th4w-NN6-82 (GGCFHPFLPIRSLHFCCR; C4m#19-5th4w-NN6-82),28.3
16,C4m#19-5th4w-NN6-86 (GGCAHPVLPIRSLHFCPH; C4m#19-5th4w-NN6-86),19.7
17,C4m#19-5th4w-NN6-87 (GGCLHPVLPIRSFHFCWR; C4m#19-5th4w-NN6-87),21.4
18,C4m#19-5th4w-NN6-90 (GGCRHPWLPIVSYHFCSS; C4m#19-5th4w-NN6-90),21.2
19,C4m#19-5th4w-NN6-91 (GGCMHPYLRIISPHFCRG; C4m#19-5th4w-NN6-91),30.0

# The next lines start with the values.
row,ELISA S/N(SA),Molecule
1,18.7,C4m#19-5th4w-NN6-58 (GGCRHPFLPISSIHFCCI; C4m#19-5th4w-NN6-58)
2,17.2,C4m#19-5th4w-NN6-62 (GGCQHPYLPIWSFHFCPF; C4m#19-5th4w-NN6-62)
3,12.5,C4m#19-5th4w-NN6-65 (GGCWHPFLPILSLHFCSR; C4m#19-5th4w-NN6-65)
4,29.5,C4m#19-5th4w-NN6-65-1 (GGCWHPFLPISSPHFCGR; left off: large carriers; small tags and cut ends)
5,24.7,C4m#19-5th4w-NN6-68 (GGCLHPWLPIRSRHFCSR; C4m#19-5th4w-NN6-68)
6,24.9,C4m#19-5th4w-NN6-69-3 (GGCLHPWLPIVSVHFCAR; C4m#19-5th4w-NN6-69-3)
7,4.6,C4m#19-5th4w-NN6-72 (GGCWHPWLPIVSVHFCGC; C4m#19-5th4w-NN6-72)
8,27.9,C4m#19-5th4w-NN6-78 (GGCWHPALPIRSWHFCPR; C4m#19-5th4w-NN6-78)
9,3.8,C4m#19-5th4w-NN6-80 (GGCRHPFLPIFSWHFCAV; C4m#19-5th4w-NN6-80)
10,12.0,C4m#19-5th4w-NN6-83 (GGCLHPLLPILSVHFCPS; C4m#19-5th4w-NN6-83)
11,22.9,C4m#19-5th4w-NN6-85 (GGCWHPFLPIFSVHFCGC; C4m#19-5th4w-NN6-85)
12,8.3,C4m#19-5th4w-NN6-89 (GGCMHPFLPIISQHFCAF; C4m#19-5th4w-NN6-89)
13,30.0,C4m#19-5th4w-NN6-92-1 (GGCVHPFLPIRSVHFCAL; C4m#19-5th4w-NN6-92-1)
14,28.9,C4m#19-5th4w-NN6-93 (GGCCHPWLPIVSTHFCGL; C4m#19-5th4w-NN6-93)
15,5.0,C4m#19-5th4w-NN6-94 (GGCLHPFLPIYSLHFCPC; C4m#19-5th4w-NN6-94)
16,14.7,C4m#19-6th4w-NN6-5-3 (GGCWHPFLPILSLHFCGW; left off: large carriers; small tags and cut ends)
17,22.9,C4n#19-5th2w-NNS6-71 (GGCRHPYLPIASPHFCPG; left off: large carriers; small tags and cut ends)

# Molecular target: T1, CTLA-4
# Test: Affinity measurement of synthetic biotinylated peptides by BLItz system (peptide on SA sensor chip)
# Assay type: binding
# Details: read-out: ka
# Experimental: Affinity for CTLA-4 was measured using the BLItz system (forte Bio). All operations were performed according to the instruction manual of the BLItz system. The biotinylated peptides were immobilized on the SA sensor chip via streptavidin.
row,Molecule,kon
1,CSCC[C@@H]1NC(=O)[C@@H](NC(=O)[C@H](CCCCN)NC(=O)CCOCCOCCOCCOCCNC(=O)CCCC[C@@H]2SC[C@@H]3NC(=O)N[C@@H]32)CSSC[C@@H](C(=O)O)NC(=O)[C@H](Cc2ccccc2)NC(=O)[C@H](Cc2c[nH]cn2)NC(=O)[C@H](Cc2c[nH]cn2)NC(=O)[C@H](CO)NC(=O)[C@H](C(C)C)NC(=O)[C@H](C(C)C)NC(=O)[C@H](CC(C)C)NC(=O)[C@H](CC(C)C)NC(=O)[C@H](Cc2ccccc2)NC(=O)[C@@H]2CCCN2C(=O)[C@H](Cc2c[nH]cn2)NC1=O [biotinylated H12SSI-Ctla4-3-02] ({Biotin-PEG4}-KCMHPFLLVVSHHFC-OH; disulfide 2-15; C-terminus assumed),115000 M⁻¹ s⁻¹

# Same assay, conditions: synthetic Biotin-PEG4-Lys peptide immobilized; BLItz
row,Molecule,kd
1,CSCC[C@@H]1NC(=O)[C@@H](NC(=O)[C@H](CCCCN)NC(=O)CCOCCOCCOCCOCCNC(=O)CCCC[C@@H]2SC[C@@H]3NC(=O)N[C@@H]32)CSSC[C@@H](C(=O)O)NC(=O)[C@H](Cc2ccccc2)NC(=O)[C@H](Cc2c[nH]cn2)NC(=O)[C@H](Cc2c[nH]cn2)NC(=O)[C@H](CO)NC(=O)[C@H](C(C)C)NC(=O)[C@H](C(C)C)NC(=O)[C@H](CC(C)C)NC(=O)[C@H](CC(C)C)NC(=O)[C@H](Cc2ccccc2)NC(=O)[C@@H]2CCCN2C(=O)[C@H](Cc2c[nH]cn2)NC1=O [biotinylated H12SSI-Ctla4-3-02] ({Biotin-PEG4}-KCMHPFLLVVSHHFC-OH; disulfide 2-15; C-terminus assumed),0.022 s⁻¹
